Results as given in patent publication US20200405762A1 (published 2020).

T1: cyclin A1 (CCNA1), isoform 3 (SEQ ID NO:4) peptide on HLA-A*02:01 (human)
T1 peptide: FLDRFLSCM

T2: cyclin A1 (CCNA1), isoform 3 (SEQ ID NO:4) peptide on HLA-A*02:01 (human)
T2 peptide: YSLSEIVPCL

T3: cyclin A1 (CCNA1), isoform 3 (SEQ ID NO:4) peptide on HLA-A*02:01 (human)
T3 peptide: SLIAAAAFCLA


Tests used:
Experiment in all cases: multimer staining
[1] = target: T1, cyclin A1 (CCNA1), isoform 3 (SEQ ID …)
[2] = target: T2, cyclin A1 (CCNA1), isoform 3 (SEQ ID …)
[3] = target: T3, cyclin A1 (CCNA1), isoform 3 (SEQ ID …)

| Binder | binding result [1] | also measured |
| --- | --- | --- |
| TCR #4 (TCR, V domains shown) Valpha: SQQGEEDPQALSIQEGENATMNCSYKTSINNLQWYRQNSGRGLVHLILIRSNEREKHSGRLRVTLDTSKKSSSLLITASRAADTASYFCATDAWESNFGNEKLTFGTGTRLTIIP Vbeta: GAGVSQSPSNKVTEKGKDVELRCDPISGHTALYWYRQSLGQGLEFLIYFQGNSAPDKSGLPSDRFSAERTGGSVSTLTIQRTQQEDSAVYLCASSLVVGSYEQYFGPGTRLTVT | recognises | – |
| TCR #8 (TCR, V domains shown) Valpha: AQKVTQAQTEISVVEKEDVTLDCVYETRDTTYYLFWYKQPPSGELVFLIRRNSFDEQNEISGRYSWNFQKSTSSFNFTITASQVVDSAVYFCALSELASGGSYIPTFGRGTSLIVHP Vbeta: DAGVTQSPTHLIKTRGQQVTLRCSPKSGHDTVSWYQQALGQGPQFIFQYYEEEERQRGNFPDRFSGHQFPNYSSELNVNALLLGDSALYLCASSFRLAGGPSTDTQYFGPGTRLTVL | – | binding result [2]: recognises |
| TCR #3 (TCR, V domains shown) Valpha: QKEVEQNSGPLSVPEGAIASLNCTYSDRGSQSFFWYRQYSGKSPELIMSIYSNGDKEDGRFTAQLNKASQYVSLLIRDSQPSDSATYLCAVDSGGYQKVTFGTGTKLQVIP Vbeta: GAGVSQTPSNKVTEKGKYVELRCDPISGHTALYWYRQSLGQGPEFLIYFQGTGAADDSGLPNDRFFAVRPEGSVSTLKIQRTERGDSAVYLCASSLNMNTEAFFGQGTRLTVV | recognises | – |
| TCR #7 (TCR, V domains shown) Valpha: ILNVEQSPQSLHVQEGDSTNFTCSFPSSNFYALHWYRWETAKSPEALFVMTLNGDEKKKGRISATLNTKEGYSYLYIKGSQPEDSATYLCAYLGAGNQFYFGTGTSLTVIP Vbeta: DGGITQSPKYLFRKEGQNVTLSCEQNLNHDAMYWYRQDPGQGLRLIYYSQIVNDFQKGDIAEGYSVSREKKESFPLTVTSAQKNPTAFYLCASSLNRGRYGYTFGSGTRLTVV | – | binding result [3]: recognises |
